Experimental data from article PMC11862924, “Phenylpyrazoles as Inhibitors of the m6A RNA-Binding Protein YTHDF2”.

Assays:
YTHDF2 YTH domain = molecular target: T1, YTHDF2 YTH domain (UniProt Q9Y5A9 383-553); settings: protein: recombinant; tags: N-terminal His6 and GST; label: none
T1 sequence: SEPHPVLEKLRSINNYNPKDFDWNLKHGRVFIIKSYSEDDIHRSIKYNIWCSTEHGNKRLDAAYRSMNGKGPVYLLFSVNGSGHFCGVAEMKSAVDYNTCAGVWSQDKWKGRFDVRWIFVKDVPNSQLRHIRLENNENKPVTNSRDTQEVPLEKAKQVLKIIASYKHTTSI

YTHDC2 YTH domain = molecular target: T2, YTHDC2 YTH domain (UniProt Q9H6S0 1285-1424); settings: protein: recombinant
T2 sequence: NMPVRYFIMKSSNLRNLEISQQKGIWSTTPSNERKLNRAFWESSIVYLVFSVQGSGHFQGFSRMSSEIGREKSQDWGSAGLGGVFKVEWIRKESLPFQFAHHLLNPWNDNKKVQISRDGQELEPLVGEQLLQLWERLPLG

YTHDF1 YTH domain = molecular target: T3, YTHDF1 YTH domain (UniProt Q9BYJ9 375-552); settings: protein: recombinant
T3 sequence: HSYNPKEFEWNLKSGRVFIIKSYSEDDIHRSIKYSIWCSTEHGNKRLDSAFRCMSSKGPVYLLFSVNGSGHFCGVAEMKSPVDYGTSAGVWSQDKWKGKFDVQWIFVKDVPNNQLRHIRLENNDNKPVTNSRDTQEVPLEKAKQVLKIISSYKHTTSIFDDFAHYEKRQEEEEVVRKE

YTHDF3 YTH domain = molecular target: T4, YTHDF3 YTH domain (UniProt Q7Z739 391-585); settings: protein: recombinant
T4 sequence: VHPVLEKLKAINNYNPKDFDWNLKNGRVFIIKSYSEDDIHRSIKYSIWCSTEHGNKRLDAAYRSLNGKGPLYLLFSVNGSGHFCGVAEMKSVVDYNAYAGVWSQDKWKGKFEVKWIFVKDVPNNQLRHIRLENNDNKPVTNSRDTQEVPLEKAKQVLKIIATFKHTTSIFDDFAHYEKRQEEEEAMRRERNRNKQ

YTHDC1 YTH domain = YTHDC1 YTH domain (UniProt Q96MU7 345-509); experiment: EMSA; 20 nM RNA; FP: 20 mM HEPES/KOH pH 7.5, 50 mM NaCl, 0.005% Tween 20, 1 mM GSH (DTT), 4 C; EMSA: 20 mM HEPES pH 8.2, 50 mM NaCl, 0.05% Triton X-100, 5% glycerol, 4 C, 0.5x T

Binder	IC50 (YTHDF2 YTH domain)	binding result (YTHDC2 YTH domain)	binding result (YTHDF1 YTH domain)	binding result (YTHDF3 YTH domain)	binding result (YTHDC1 YTH domain)
UUCUUCUGUGGACUGUG (ssRNA, m6A at position 12) [unlabeled m6A RNA probe]	115 nM				
UUCUUCUGUGGACUGUG (ssRNA, m6A at position 12) [FAM-17mer m6A RNA probe]		binds	binds	binds	binds
